Test results as given in paper PMC8075905, “Mapping the binding sites of antibodies utilized in programmed cell death ligand-1 predictive immunohistochemical assays for use with immuno-oncology therapies” (Modern Pathology, 2019).

B1: recombinant 28-8 antibody (r28-8), rabbit IgG (antibody, V domains shown)
VH: CLSVEESGGRLVTPGTPLTLTCTASGFTITNYHMFWVRQAPGKGLEWIGVITSSGIGSSSTTYYATWAKGRFTISKTSTTVNLRITSPTTEDTATYFCARDYFTNTYYALDIWGPGTLVTVSS
VL: ALVMTQTPSSTSTAVGGTVTIKCQASQSISVYLAWYQQKPGQPPKLLIYSASTLASGVPSRFKGSRSGTEYTLTISGVQREDAATYYCLGSAGSFGGGTEVVVK
notes: Rabbit IgG; source: CHO-EBNA-GS cells, transient expression, purified
B2: recombinant 22C3 antibody (r22C3), mouse IgG (antibody, V domains shown)
VH: QVHLQQSGAELAKPGASVKMSCKASGYTFTSYWIHWIKQRPGQGLEWIGYINPSSGYHEYNQKFIDKATLTADRSSSTAYMHLTSLTSEDSAVYYCARSGWLIHGDYYFDFWGQGTTLVTVS
VL: DIVMSQSPSSLAVSAGEKVTMTCKSSQSLLHTSTRKNYLAWYQQKPGQSPKLLIYWASTRESGVPDRFTGSGSGTDFTLTISSVQAEDLAVYYCKQSYDVVTFGAGTKLEIK
notes: Mouse IgG; source: CHO-EBNA-GS cells, transient expression, purified

Experiments:
[1] = biological target: T1, Ext4 PD-L1-GFP, a PD-L1 mutant with residues 284-290 deleted (Homo sapiens, UniProt Q9NZQ7, residues 284–290 deleted); assay: immunostaining of cells or tissue; confocal immunofluorescence microscopy of HEK293 cells expressing PD-L1-GFP constructs, stained with r22C3 and r28-8; protocol in Supplementary Appendix B; settings: one partner purified
T1 construct: The label 'Ext4' is probably a slip for 'Int4'; source: HEK293 cells, expressed, on cells

[2] = biological target: T2, His-tagged extracellular domain of PD-L1 (residues 19-238) (Homo sapiens (Human)., UniProt Q9NZQ7, N-linked glycosylation (sites N35, N192, N200, N219)); assay: SPR; Biacore T200, 25 °C, PBS pH 7.4 with 0.05% Tween-20; 90 RU r22C3 captured, PD-L1 extracellular domain injected at 110 nM, then r28-8 injected over the r22C3-PD-L1 complex (top 33 nM, two-fold dilutions); 1:1 Langmuir model; settings: both partners purified
T2 construct: programmed cell death ligand-1 (PD-L1), human, extracellular domain, residues 19-238 of the 290-residue protein; The limits are stated for the SPR experiment; also called PD-L1 extracellular domain; recombinant PD-L1; source: provided by MedImmune, Cambridge, UK; purified

[3] = biological target: T2, His-tagged extracellular domain of …; assay: SPR; Biacore T200, 25 °C, PBS (10 mM sodium phosphate, 154 mM NaCl, pH 7.4) with 0.05% Tween-20; 90 RU r22C3 captured on anti-mouse antibody on a C1 chip; PD-L1 extracellular domain injected (top 110 nM, two-fold dilutions); 1:1 Langmuir model; settings: both partners purified

T1 sequence (Q9NZQ7 19-283, stated change not applied): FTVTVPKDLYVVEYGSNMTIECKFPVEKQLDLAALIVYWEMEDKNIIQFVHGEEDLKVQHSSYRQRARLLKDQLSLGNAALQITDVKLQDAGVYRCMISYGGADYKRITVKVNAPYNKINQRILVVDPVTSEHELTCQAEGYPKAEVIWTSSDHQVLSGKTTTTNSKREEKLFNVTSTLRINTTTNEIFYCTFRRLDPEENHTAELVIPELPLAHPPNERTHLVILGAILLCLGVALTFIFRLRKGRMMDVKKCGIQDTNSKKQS
T2 sequence (Q9NZQ7 19-238): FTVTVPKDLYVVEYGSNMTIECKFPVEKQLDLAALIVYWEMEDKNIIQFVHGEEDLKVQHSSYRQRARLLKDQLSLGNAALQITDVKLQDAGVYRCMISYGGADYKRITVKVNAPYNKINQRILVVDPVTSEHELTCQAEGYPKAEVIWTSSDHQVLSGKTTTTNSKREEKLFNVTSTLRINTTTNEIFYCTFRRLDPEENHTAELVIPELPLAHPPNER

| Binder | binding result [1] | Kd [2] [nM] | Kd [3] [nM] |
| --- | --- | --- | --- |
| B1 | binds | < 0.04 |  |
| B2 | binds |  | < 0.04 |
